Test results taken from patent US20030170203A1 (Human Genome Sciences, published 2003).

T1: full length TNF-gamma-beta expressed on the cell surface (human, UniProt O95150 1-251)
T1 construct: whole, on cells; also called TNF-gamma-beta expressing cells
T1 sequence (looked up): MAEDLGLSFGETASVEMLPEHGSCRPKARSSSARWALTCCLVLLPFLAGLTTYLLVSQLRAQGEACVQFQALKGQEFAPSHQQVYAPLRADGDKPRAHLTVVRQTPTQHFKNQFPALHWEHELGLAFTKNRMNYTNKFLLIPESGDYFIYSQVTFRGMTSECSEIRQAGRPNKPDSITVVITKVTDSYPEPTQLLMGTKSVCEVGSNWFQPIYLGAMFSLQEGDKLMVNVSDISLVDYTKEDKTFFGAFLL

B1: Fc-fusion form of the extracellular domain of OPG (Fc fusion, UniProt O00300 22-194, looked up)
chain: ETFPPKYLHYDEETSHQLLCDKCPPGTYLKQHCTAKWKTVCAPCPDHYYTDSWHTSDECLYCSPVCKELQYVKQECNRTHNRVCECKEGRYLEIEFCLKHRSCPPGFGVVQAGTPERNTVCKRCPDGFFSNETSSKAPCRKHTNCSVFGLLLTQKGNATHDNICSGNSESTQK
notes: extracellular domain; not shown: Fc
B2: Fc-fusion form of the extracellular domain of AITR (Fc fusion, UniProt Q9Y5U5 26-162, looked up)
chain: QRPTGGPGCGPGRLLLGTGTDARCCRVHTTRCCRDYPGEECCSEWDCMCVQPEFHCGDPCCTTCRHHPCPPGQGVQSQGKFSFGFQCIDCASGTFSGGHEGHCKPWTDCTQFGFLTVFPGNKTHNAVCVPGSPPAEP
notes: as for B1
B3: Fc-fusion form of the extracellular domain of RANK (Fc fusion, UniProt Q9Y6Q6 30-212, looked up)
chain: IAPPCTSEKHYEHLGRCCNKCEPGKYMSSKCTTTSDSVCLPCGPDEYLDSWNEEDKCLLHKVCDTGKALVAVVAGNSTTPRRCACTAGYHWSQDCECCRRNTECAPGLGAQHPLQLNKDTVCKPCLAGYFSDAFSSTDKCRPWTNCTFLGKRVEHHGTEKSDAVCSSSLPARKPPNEPHVYLP
notes: as for B1
B4: Fc-fusion form of the extracellular domain of OX40 (Fc fusion, UniProt P43489 29-214, looked up)
chain: LHCVGDTYPSNDRCCHECRPGNGMVSRCSRSQNTVCRPCGPGFYNDVVSSKPCKPCTWCNLRSGSERKQLCTATQDTVCRCRAGTQPLDSYKPGVDCAPCPPGHFSPGDNQACKPWTNCTLAGKHTLQPASNSSDAICEDRDPPATQPQETQGPPARPITVQPTEAWPRTSQGPSTRPVEVPGGRA
notes: as for B1
B5: Fc-fusion form of the extracellular domain of DcR2 (Fc fusion, UniProt Q9UBN6 56-211, looked up)
chain: ATIPRQDEVPQQTVAPQQQRRSLKEEECPAGSHRSEYTGACNPCTEGVDYTIASNNLPSCLLCTVCKSGQTNKSSCTTTRDTVCQCEKGSFQDKNSPEMCRTCRTGCPRGMVKVSNCTPRSDIKCKNESAASSTGKTPAAEETVTTILGMLASPYH
notes: as for B1
B6: Fc-fusion form of the extracellular domain of TNFR1 (Fc fusion, UniProt P19438 30-211, looked up)
chain: LVPHLGDREKRDSVCPQGKYIHPQNNSICCTKCHKGTYLYNDCPGPGQDTDCRECESGSFTASENHLRHCLSCSKCRKEMGQVEISSCTVDRDTVCGCRKNQYRHYWSENLFQCFNCSLCLNGTVHLSCQEKQNTVCTCHAGFFLRENECVSCSNCKKSLECTKLCLPQIENVKGTEDSGTT
notes: extracellular domain; also called TNFR1-Fc; TNFRI.Fc; not shown: Fc
B7: Fc-fusion form of the extracellular domain of DcR1 (Fc fusion, UniProt O14798 26-221, looked up)
chain: ATTARQEEVPQQTVAPQQQRHSFKGEECPAGSHRSEHTGACNPCTEGVDYTNASNNEPSCFPCTVCKSDQKHKSSCTMTRDTVCQCKEGTFRNENSPEMCRKCSRCPSGEVQVSNCTSWDDIQCVEEFGANATVETPAAEETMNTSPGTPAPAAEETMNTSPGTPAPAAEETMTTSPGTPAPAAEETMTTSPGTPA
notes: as for B1

What follows are binders tested against T1, full length TNF-gamma-beta expressed on … (assay: flow cytometry on HEK293F stable transfectants expressing full length TNF-gamma-beta).
Protocol: TR6 has been previously described as a decoy receptor (Pitti et al., Nature 396:699-703 (1998); Yu et al., J. Biol Chem. 274:13733-6 (1999)) capable of competing with Fas and HveA for binding of FasL and LIGHT, respectively.
One million cells, in 0.1 ml of FACS buffer (PBS, 0.1% BSA, 0.1% NaN₃), were incubated with 0.1-1 microgram of protein or antibody at RT for 15 min. The cells were washed with 3 ml of FACS buffer, reacted with biotinylated primary antibody, and stained with PE-conjugated secondary antibody at RT for 15 min. Cells were then washed again, resuspended in 0.5 microgram/ml of propidium iodide, and live cells were gated and analyzed on a FACScan using the CellQuest software (BD Biosciences).

Binding result, no binding:
B1
B2
B3
B4
B5
B6
B7
